Measured values from publication PMC12876063, “Rad51 determines pathway usage in post-replication repair” (Nature Communications, 2026).
Several values for one entry are separate records, joined by “and”; a condition that tells them apart may be missing. Equal values may be shown once.

How the values were obtained:
[1] = biological target: T1, Rad51-KN (Rad51-K305N) K305N (Saccharomyces cerevisiae) (UniProt P25454); test: EMSA; conditions: Kd EMSA: 35 mM Tris-acetate pH 7.5, 50 or 100 mM NaCl, 7 mM Mg acetate, 2 mM ATP, 1 mM DTT, 0.25 mg/mL BSA, 3 uM nt/bp DNA, 30 C 30 min; salt titration: 20 mM …
T1 sequence: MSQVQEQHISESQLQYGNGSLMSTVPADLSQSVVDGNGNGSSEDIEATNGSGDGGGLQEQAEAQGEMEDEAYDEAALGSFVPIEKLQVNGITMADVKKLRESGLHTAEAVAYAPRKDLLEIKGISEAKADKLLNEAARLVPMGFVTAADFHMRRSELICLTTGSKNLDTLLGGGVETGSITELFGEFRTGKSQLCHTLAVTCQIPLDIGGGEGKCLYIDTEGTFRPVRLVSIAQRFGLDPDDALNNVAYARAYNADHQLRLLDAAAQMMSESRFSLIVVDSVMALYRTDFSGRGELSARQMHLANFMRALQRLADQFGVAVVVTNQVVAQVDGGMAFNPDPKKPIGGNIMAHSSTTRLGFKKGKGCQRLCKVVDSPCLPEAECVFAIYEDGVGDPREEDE

[2] = biological target: T2, Rad51 wild type (Saccharomyces cerevisiae) (UniProt P25454); test: EMSA; conditions: Kd EMSA: 35 mM Tris-acetate pH 7.5, 50 or 100 mM NaCl, 7 mM Mg acetate, 2 mM ATP, 1 mM DTT, 0.25 mg/mL BSA, 3 uM nt/bp DNA, 30 C 30 min; salt titration: 20 mM …
T2 sequence: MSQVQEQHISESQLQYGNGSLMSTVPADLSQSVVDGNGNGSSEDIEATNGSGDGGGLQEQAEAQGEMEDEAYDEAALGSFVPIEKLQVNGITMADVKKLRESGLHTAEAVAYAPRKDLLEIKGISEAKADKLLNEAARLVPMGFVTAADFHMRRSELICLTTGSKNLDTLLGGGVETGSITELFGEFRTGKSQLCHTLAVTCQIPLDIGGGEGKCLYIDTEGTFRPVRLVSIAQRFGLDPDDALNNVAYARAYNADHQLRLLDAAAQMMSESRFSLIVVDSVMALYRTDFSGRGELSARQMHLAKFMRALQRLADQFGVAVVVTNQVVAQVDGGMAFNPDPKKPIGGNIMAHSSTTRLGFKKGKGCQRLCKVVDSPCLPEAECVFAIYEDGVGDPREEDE

[3] = biological target: T3, Rad51-ED (Rad51-E135D) E135D (Saccharomyces cerevisiae) (UniProt P25454); test: EMSA; conditions: Kd EMSA: 35 mM Tris-acetate pH 7.5, 50 or 100 mM NaCl, 7 mM Mg acetate, 2 mM ATP, 1 mM DTT, 0.25 mg/mL BSA, 3 uM nt/bp DNA, 30 C 30 min; salt titration: 20 mM …
T3 sequence: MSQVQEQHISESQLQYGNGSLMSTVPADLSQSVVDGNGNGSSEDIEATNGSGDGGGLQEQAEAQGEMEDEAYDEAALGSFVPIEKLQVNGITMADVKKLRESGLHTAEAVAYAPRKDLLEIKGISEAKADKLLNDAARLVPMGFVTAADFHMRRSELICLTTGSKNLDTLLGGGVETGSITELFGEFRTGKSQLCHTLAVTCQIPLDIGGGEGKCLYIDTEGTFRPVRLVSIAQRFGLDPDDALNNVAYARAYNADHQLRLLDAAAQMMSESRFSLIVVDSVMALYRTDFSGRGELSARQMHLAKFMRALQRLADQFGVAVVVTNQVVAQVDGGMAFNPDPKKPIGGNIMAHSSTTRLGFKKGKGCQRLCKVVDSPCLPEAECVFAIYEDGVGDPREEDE

[4] = biological target: T1, Rad51-KN (Rad51-K305N) K305N (Saccharomyces cerevisiae); test: EMSA (salt titration); conditions: 3.33 uM Rad51, ATP, Mg2+; listed as label assigned from text (ED defect stronger); Kd EMSA: 35 mM Tris-acetate pH 7.5, 50 or 100 mM NaCl, 7 mM Mg acetate, 2 mM ATP, 1 mM DTT, 0.25 mg/mL BSA, 3 uM nt/bp DNA, 30 C 30 min; salt titration: 20 mM …
[5] = biological target: T2, Rad51 wild type (Saccharomyces cerevisiae); test: EMSA (salt titration); conditions: 3.33 uM Rad51, ATP, Mg2+, glutaraldehyde fixed; Kd EMSA: 35 mM Tris-acetate pH 7.5, 50 or 100 mM NaCl, 7 mM Mg acetate, 2 mM ATP, 1 mM DTT, 0.25 mg/mL BSA, 3 uM nt/bp DNA, 30 C 30 min; salt titration: 20 mM …
[6] = biological target: T3, Rad51-ED (Rad51-E135D) E135D (Saccharomyces cerevisiae); test: EMSA (salt titration); conditions: 3.33 uM Rad51, ATP, Mg2+; listed as label assigned from text (ED defect stronger); Kd EMSA: 35 mM Tris-acetate pH 7.5, 50 or 100 mM NaCl, 7 mM Mg acetate, 2 mM ATP, 1 mM DTT, 0.25 mg/mL BSA, 3 uM nt/bp DNA, 30 C 30 min; salt titration: 20 mM …
[7] = biological target: T4, GST-Rad55-His6-Rad57 complex (S. cerevisiae, UniProt P38953 1-406; P25301 1-460); test: pull-down; 100 nM GST-Rad55-His6-Rad57 with 100 nM Rad51 in buffer P (25 mM Tris-acetate pH 7.5, 10 mM magnesium acetate, 50 mM NaCl, 1 mM DTT, 10% glycerol, 0.01% NP-40), 25 ul, 1 h at room temperature; captured on BSA-treated glutathione agarose beads; immunoblot with anti-Rad51 and anti-GST; conditions: both partners purified
T4 construct: Rad55, Rad51 paralog of budding yeast; Rad57, Rad51 paralog of budding yeast; stored in 20 mM Tris-HCl pH 7.5, 0.2 M NaCl, 0.1 mM EDTA, 1 mM DTT, 50% glycerol; also called Rad55-Rad57; Rad51 paralog complex; source: purified as described (Liu et al. 2011b)
T4 sequence (looked up) 1: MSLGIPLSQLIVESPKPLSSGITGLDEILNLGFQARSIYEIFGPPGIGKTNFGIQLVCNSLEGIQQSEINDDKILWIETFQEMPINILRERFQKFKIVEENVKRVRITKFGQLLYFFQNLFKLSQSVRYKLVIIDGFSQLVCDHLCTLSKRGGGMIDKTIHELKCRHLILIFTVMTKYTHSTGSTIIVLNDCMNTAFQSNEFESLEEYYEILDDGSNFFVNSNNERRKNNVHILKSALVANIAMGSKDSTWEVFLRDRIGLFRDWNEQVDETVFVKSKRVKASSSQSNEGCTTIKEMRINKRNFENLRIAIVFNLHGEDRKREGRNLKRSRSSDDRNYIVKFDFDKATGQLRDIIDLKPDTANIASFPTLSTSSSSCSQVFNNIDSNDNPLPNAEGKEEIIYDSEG
T4 sequence (looked up) 2: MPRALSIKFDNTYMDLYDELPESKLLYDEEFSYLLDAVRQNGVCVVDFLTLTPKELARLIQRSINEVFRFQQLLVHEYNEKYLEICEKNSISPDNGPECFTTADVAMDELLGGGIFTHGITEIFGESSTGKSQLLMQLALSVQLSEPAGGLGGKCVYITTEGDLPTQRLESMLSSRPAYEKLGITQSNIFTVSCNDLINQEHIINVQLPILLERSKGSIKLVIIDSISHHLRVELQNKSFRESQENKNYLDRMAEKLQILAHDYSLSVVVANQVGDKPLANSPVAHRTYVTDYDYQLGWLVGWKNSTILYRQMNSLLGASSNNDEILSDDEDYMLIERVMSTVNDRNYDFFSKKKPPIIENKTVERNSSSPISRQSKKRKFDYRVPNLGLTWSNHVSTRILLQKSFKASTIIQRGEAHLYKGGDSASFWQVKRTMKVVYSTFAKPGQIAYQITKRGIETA

With “AACGACGTTTGGTCAGTTCCATCAACATCATAGCCAGATGCCCAGAGATTAGAGCGCATGACAAGTAAAGGACGGTTGTCAGCGTCATAAGAGGTTTTAC [olWDH2086 100 nt ssDNA]” the Kd [1] was 339 nM and 402 nM, the Kd [2] was 497 nM and 578 nM and the Kd [3] was 486 nM and 602 nM.

In the case of PhiX174 RF1 dsDNA, the salt titration midpoint (mM NaCl (salt titration midpoint)) [4] is reported as 71, the salt titration midpoint (mM NaCl (salt titration midpoint)) [5] is reported as 174 and the salt titration midpoint (mM NaCl (salt titration midpoint)) [6] is reported as 42.

With PhiX174 viral ssDNA the salt titration midpoint (mM NaCl (salt titration midpoint)) [4] was 143, the salt titration midpoint (mM NaCl (salt titration midpoint)) [5] was 246 and the salt titration midpoint (mM NaCl (salt titration midpoint)) [6] was 130.

B1: Rad51 wild type protein (natural protein, S. cerevisiae, UniProt P25454 1-400, looked up)
chain: MSQVQEQHISESQLQYGNGSLMSTVPADLSQSVVDGNGNGSSEDIEATNGSGDGGGLQEQAEAQGEMEDEAYDEAALGSFVPIEKLQVNGITMADVKKLRESGLHTAEAVAYAPRKDLLEIKGISEAKADKLLNEAARLVPMGFVTAADFHMRRSELICLTTGSKNLDTLLGGGVETGSITELFGEFRTGKSQLCHTLAVTCQIPLDIGGGEGKCLYIDTEGTFRPVRLVSIAQRFGLDPDDALNNVAYARAYNADHQLRLLDAAAQMMSESRFSLIVVDSVMALYRTDFSGRGELSARQMHLAKFMRALQRLADQFGVAVVVTNQVVAQVDGGMAFNPDPKKPIGGNIMAHSSTTRLGFKKGKGCQRLCKVVDSPCLPEAECVFAIYEDGVGDPREEDE
notes: Rad51, Saccharomyces cerevisiae; native, untagged protein; Purified native and untagged; also called wild-type Rad51; wild type Rad51
B1: binds [7].

B2: Rad51-E135D (natural protein, S. cerevisiae, UniProt P25454 1-400, looked up)
chain: MSQVQEQHISESQLQYGNGSLMSTVPADLSQSVVDGNGNGSSEDIEATNGSGDGGGLQEQAEAQGEMEDEAYDEAALGSFVPIEKLQVNGITMADVKKLRESGLHTAEAVAYAPRKDLLEIKGISEAKADKLLNDAARLVPMGFVTAADFHMRRSELICLTTGSKNLDTLLGGGVETGSITELFGEFRTGKSQLCHTLAVTCQIPLDIGGGEGKCLYIDTEGTFRPVRLVSIAQRFGLDPDDALNNVAYARAYNADHQLRLLDAAAQMMSESRFSLIVVDSVMALYRTDFSGRGELSARQMHLAKFMRALQRLADQFGVAVVVTNQVVAQVDGGMAFNPDPKKPIGGNIMAHSSTTRLGFKKGKGCQRLCKVVDSPCLPEAECVFAIYEDGVGDPREEDE
notes: Rad51, Saccharomyces cerevisiae, with the single change E135D (isolated by mutagenic PCR); native, untagged protein; also called Rad51-ED; rad51-ED
B2: binds [7].

B3: Rad51-K305N (natural protein, S. cerevisiae, UniProt P25454 1-400, looked up)
chain: MSQVQEQHISESQLQYGNGSLMSTVPADLSQSVVDGNGNGSSEDIEATNGSGDGGGLQEQAEAQGEMEDEAYDEAALGSFVPIEKLQVNGITMADVKKLRESGLHTAEAVAYAPRKDLLEIKGISEAKADKLLNEAARLVPMGFVTAADFHMRRSELICLTTGSKNLDTLLGGGVETGSITELFGEFRTGKSQLCHTLAVTCQIPLDIGGGEGKCLYIDTEGTFRPVRLVSIAQRFGLDPDDALNNVAYARAYNADHQLRLLDAAAQMMSESRFSLIVVDSVMALYRTDFSGRGELSARQMHLANFMRALQRLADQFGVAVVVTNQVVAQVDGGMAFNPDPKKPIGGNIMAHSSTTRLGFKKGKGCQRLCKVVDSPCLPEAECVFAIYEDGVGDPREEDE
notes: Rad51, Saccharomyces cerevisiae, with the single change K305N (isolated by mutagenic PCR); native, untagged protein; also called Rad51-KN; RAD51-KN
B3: binds [7].
